Results from US8541373B2, “BChE albumin fusions for the treatment of cocaine abuse” (priority 2009, dated 2013).
Several values for one entry are separate records, joined by “and”; a condition that tells them apart may be missing. Equal entries are not always repeated.

Legend:
[1] = AlbuBChE serum pharmacokinetics after single 5 mg/kg IM dose (ELISA); details: for AlbuBChE serum concentration, individual Squirrel monkeys: 5 mg/kg IM
Description: To evaluate AlbuBChE pharmacokinetics and pharmacodynamics following a single 5 mg/kg intramuscular injection of AlbuBChE to Squirrel monkeys. AlbuBChE pharmacodynamic effect was measured following cocaine IV administration at a dose of 1 mg/kg in control animals or at 2, 72 and 96 hr post-AlbuBChE dose.
Blood samples (0.4 mL) were collected from the femoral vein and placed into serum separator tubes (SST) at pre-dose, 24, 72, 96 & 336 hrs post-dose (samples collected at 336 hr (14 days) post-dose were intended to evaluate immunogenicity. The samples were also analyzed for AlbuBChE concentration). Tubes were maintained at room temperature for at least 1 hour, but not to exceed 4 hours prior to centrifugation. Samples were centrifuged and at least 200 μL of serum was harvested and maintained on dry ice prior to storage at approximately −70° C.
Blocking is done with 2% casein in phosphate buffered saline (PBS), 200 μL/well, 2 hours at room temperature. After washing, 100 μL of diluted serum samples are added to the plates along with standards. Standards are generated through 2.6 fold, serial dilution of AlbuBChE from 420 to 5.2 ng/mL. Serum samples and standards are maintained at 10% serum by dilution with buffer containing pooled cynomolgus monkey serum. A wash step precedes detection with 100 μl of anti-HSA mAb-6502-HRP at 0.04 μg/mL for 1 hour. Wells are washed again, prior to developing with 100 μl, of tetramethylbenzidine substrate. After 15 minutes the reaction is terminated with 100 μL/well of 1N H2SO4 and read on SpectraMax plate reader at 450/570 nm. Values for unknown serum samples are calculated by interpolation of standard curve generated by 5-parameter fit of AlbuBChE standards. Serum samples collected at predose and on Day 14 postdose were also analyzed for immunogenicity.
AlbuBChE pharmacokinetic parameter values were determined using serum concentration-time profiles for individual animals. The computer software WinNonlin Professional (Version 4.0.1 Pharsight Corporation, USA) was used. Specifically the model for non-compartmental analysis with extravascular input was applied.

[2] = Previous pharmacokinetic study, SC, IM and IV administration (bioavailability); details: previous study in cynomolgus monkeys
Description: AlbuBChE absolute bioavailability for IM and Sc routes of administration was calculated relative to IV at the […] dose level.
In a previous study, AlbuBChE pharmacokinetic profile was evaluated in cynomolgus monkeys. In that study, the test article was administered SC (7.8, 2.4 and 0.78 mg/kg), IM (2.4 mg/kg) and IV (2.4 mg/kg). […] In addition, AlbuBChE IM dose levels of 0.2, 1 and 5 mg/kg were selected to define AlbuBChE pharmacodynamic range in cynomolgus monkeys.

cocaine = test: AlbuBChE PK/PD analysis, direct inhibitory effect Emax model (cocaine concentration at 5 min); details: Squirrel monkeys, cocaine at 5 min, approximate estimate
Description: In spite of the limited amount of data, an attempt was made to characterize PK/PD relationship. The computer software WinNonlin Professional (Version 4.0.1 Pharsight Corporation, USA) was used. Specifically the direct Inhibitory Effect Emax model was use in which Emax was assumed at AlbuBChE concentration of zero. The model equation can be described as follows: E=Emax*(1−(C/(C+EC50)))
The PD parameter used in the analysis was cocaine plasma concentration at 5 min post-cocaine dose. PK parameters used in the model were AlbuBChE plasma concentrations at 2, 72 and 96 hr post-AlbuBChE dose. Due to the fact that AlbuBChE concentration was not measured at 2 hr post-AlbuBChE dose, the 1st time sample collected was used in the analysis (24 hr post-AlbuBChE dose) with the assumptions that AlbuBChE concentration at 24 hr post AlbuBChE dose may reflect AlbuBChE concentration at 2 hr post AlbuBChE dose.

[3] = Animal observations in PK/PD study
[4] = Clinical study: safety, tolerability and immunogenicity of single IM AlbuBChE; format: in vivo, human; details: humans
Description: Forty (40) non-treatment seeking healthy adults who have used cocaine are randomly assigned to five (5) treatment groups. Each group will contain eight subjects. • Group A (low dose): Subjects receive a single, intramuscular injection of 50 mg of AlbuBChE. • Group B (intermediate dose): Subjects receive a single, intramuscular injection of 100 mg of AlbuBChE. • Group C (high-intermediate dose): Subjects receive a single, intramuscular injection of 150 mg of AlbuBChE. • Group D (high dose): Subjects receive a single, intramuscular injection of 300 mg of AlbuBChE. • Group E (negative control): Subjects receive a single, intramuscular injection of placebo.
Vital signs, including blood pressure, heart rate (part of the PD parameters) and body temperature are monitored. […]. Telemetry is performed for 4 hours immediately after each cocaine injection.
Local tolerability and pain (evaluated by the visual analogue scale (VAS)) at the injection site are evaluated during the first 24 h after dosing. Timepoints are: 20 min, 1, 2, 4, 8 and 24 hours post AlbuBChE dose.
Samples for immunogenic levels are collected but are not all necessarily assayed. Titers for antibodies against HSA, human butyryl cholinesterase (hBChE) and AlbuBChE are evaluated. Sampling timepoints are: pre-dose and 168 hours (Day 8), 240 hours (Day 11) and follow-up (Day 18±2) post-dose. The blood tests for IG assays take place before administration of cocaine (where relevant).

[5] = individual Squirrel monkeys, single IM 5 mg/kg
[6] = individual Squirrel monkeys, single IM 5 mg/kg, apparent, first sample at 24 hr
[7] = mean of 3 Squirrel monkeys, single IM 5 mg/kg

AlbuBChE
AlbuBChE serum concentration, individual Squirrel monkeys ([1]; 24 hr post dose): 2340.2 ng/mL and 2296.7 ng/mL and 2036.7 ng/mL | AlbuBChE serum concentration, individual Squirrel monkeys ([1]; 72 hr post dose): 436.9 ng/mL and 517.7 ng/mL and 433.7 ng/mL | AlbuBChE serum concentration, individual Squirrel monkeys ([1]; 96 hr post dose): 247.5 ng/mL (2×) and 233.5 ng/mL | AlbuBChE serum concentration, individual Squirrel monkeys ([1]; 336 hr post dose): 23.4 ng/mL and 19.0 ng/mL and 7.0 ng/mL | t½ ([1]; individual Squirrel monkeys (MKY 547, 3434, 53B), single IM 5 mg/kg AlbuBChE, serum, non-compartmental): 58.8 h and 45.5 h and 65.5 h | AUC % Extrap [1, 5]: 1.17% and 0.380% and 1.61% | AUC(0-t) [1, 5]: 136.268 µg·h/mL and 120.596 µg·h/mL and 135.454 µg·h/mL | AUC(0-∞) [1, 5]: 137.881 µg·h/mL and 121.056 µg·h/mL and 137.666 µg·h/mL | Cmax [1, 6]: 2297 ng/mL and 2037 ng/mL and 2340 ng/mL | tmax [1, 6]: 24 h | AUC(0-t) Mean [1, 7]: 130.773 µg·h/mL | AUC(0-∞) Mean [1, 7]: 132.201 µg·h/mL | Bioavailability ([2]; IM): 79% | Bioavailability ([2]; SC): 35-39% | AlbuBChE serum concentration that may result in 50% decrease in cocaine concentration (EC50) (cocaine): ~0.4 µg/mL | Cocaine-related observations (hyperactivity, increased respiratory rate with abdominal breathing) ([3]; pre-treatment 0.2 to 5 mg/kg, cocaine 1 mg/kg): not observed for five days | Clinical or cageside observations associated with AlbuBChE ([3]; single IM 0.2, 1 or 5 mg/kg): no clinical or cageside observations | Deaths during the study ([3]; single IM 0.2, 1 or 5 mg/kg): no deaths | Tolerability ([3]; single IM dose of 0.2, 1 or 5 mg/kg): well tolerated | Local tolerability and pain at the IM injection site [4]: acceptable | Immune response ([4]; 50 mg to 300 mg single dose): does not provoke a significant immune response | Safety ([4]; IM doses of 50 mg to 300 mg): No significant safety issues are observed | Tolerability ([4]; IM doses of 50 mg to 300 mg): well tolerated | Blood pressure after AlbuBChE ([4]; intramuscular injection): a significant increase in blood pressure is not observed
